Here are results for three sequences from the supplement of paper PMC10065799, “High-throughput profiling of sequence recognition by tyrosine kinases and SH2 domains using bacterial peptide display” (eLife, 2023).

For one data set, the target named is Jak2 (UniProt O60674). The data set can be described thus: phosphorylation enrichment, bacterial display (enrichment ratio); higher = better substrate or ligand; peptides without Tyr show the background.
In a further data set the target is Fyn (UniProt P06241). The data set is described as above.
The subject of a further data set is c-Src. Described as above.
Another data set has as its target MERTK (UniProt Q12866). Described as above.
In another data set the target is Fes (UniProt P07332). The description is as above.
Sequence of Fes (P07332 whole entry, looked up): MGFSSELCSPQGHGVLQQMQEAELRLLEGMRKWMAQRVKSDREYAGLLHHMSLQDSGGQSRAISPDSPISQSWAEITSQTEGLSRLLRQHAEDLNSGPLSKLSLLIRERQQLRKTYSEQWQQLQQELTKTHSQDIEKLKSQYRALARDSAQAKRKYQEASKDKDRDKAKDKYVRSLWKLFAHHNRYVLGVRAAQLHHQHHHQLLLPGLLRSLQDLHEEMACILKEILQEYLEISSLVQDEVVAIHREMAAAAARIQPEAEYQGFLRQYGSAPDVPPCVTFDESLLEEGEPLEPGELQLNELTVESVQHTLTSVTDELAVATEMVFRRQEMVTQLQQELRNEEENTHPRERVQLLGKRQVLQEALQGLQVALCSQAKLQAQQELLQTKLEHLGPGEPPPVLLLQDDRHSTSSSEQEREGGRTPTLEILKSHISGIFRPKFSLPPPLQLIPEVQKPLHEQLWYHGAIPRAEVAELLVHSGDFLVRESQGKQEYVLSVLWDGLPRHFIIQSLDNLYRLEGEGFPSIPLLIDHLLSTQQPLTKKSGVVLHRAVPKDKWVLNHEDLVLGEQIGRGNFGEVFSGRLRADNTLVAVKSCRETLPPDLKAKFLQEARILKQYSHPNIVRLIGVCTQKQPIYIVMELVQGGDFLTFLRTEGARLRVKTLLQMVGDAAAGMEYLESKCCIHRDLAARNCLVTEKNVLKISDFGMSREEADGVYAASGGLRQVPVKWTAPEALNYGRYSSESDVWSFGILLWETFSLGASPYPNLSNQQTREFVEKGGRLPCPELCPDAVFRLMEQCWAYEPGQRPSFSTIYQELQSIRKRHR
The next data set concerns the target EPHB1 (UniProt P54762). Described as above.
For a further data set, the system named is Fer (mouse). Described as above.
The next data set concerns the target FGFR1 (UniProt P11362). Described as above.
Another data set concerns the target FGFR3 (UniProt P22607). Described as above.
In the next data set the test system is c-Abl (mouse). The description is as above.
The subject of a further data set is AncSZ. Described as above.
A further data set addresses Hck (UniProt P08631). Described as above.
The target of the next data set is EPHB2 (UniProt P29323). The description is as above.
The next data set has as its target Grb2 SH2 (UniProt P62993). Description: SH2 binding enrichment of the phosphorylated peptide, bacterial display (enrichment ratio); higher = better substrate or ligand; peptides without Tyr show the background.
A further data set deals with SHP2-C SH2. The description is as above.
The target in a further data set is c-Src SH2. Described as above.
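Wherever SH2 binding enrichment of the phosphorylated peptide, bacterial display is given: peptide library displayed on the E. coli surface as eCPX fusions, selected cells deep-sequenced, score is each peptide's frequency after selection divided by its frequency in the input.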
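Wherever phosphorylation enrichment, bacterial display is given: 11-residue human phosphosite peptides and single-mutation variants displayed on the E. coli surface, counted by deep sequencing, each peptide's frequency after selection divided by its frequency in the unselected input library; frequency after pTyr selection over input frequency; kinase dosed for 20-30% of maximal phosphorylation in three min.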

Sequence of FGFR3 (P22607 whole entry, looked up): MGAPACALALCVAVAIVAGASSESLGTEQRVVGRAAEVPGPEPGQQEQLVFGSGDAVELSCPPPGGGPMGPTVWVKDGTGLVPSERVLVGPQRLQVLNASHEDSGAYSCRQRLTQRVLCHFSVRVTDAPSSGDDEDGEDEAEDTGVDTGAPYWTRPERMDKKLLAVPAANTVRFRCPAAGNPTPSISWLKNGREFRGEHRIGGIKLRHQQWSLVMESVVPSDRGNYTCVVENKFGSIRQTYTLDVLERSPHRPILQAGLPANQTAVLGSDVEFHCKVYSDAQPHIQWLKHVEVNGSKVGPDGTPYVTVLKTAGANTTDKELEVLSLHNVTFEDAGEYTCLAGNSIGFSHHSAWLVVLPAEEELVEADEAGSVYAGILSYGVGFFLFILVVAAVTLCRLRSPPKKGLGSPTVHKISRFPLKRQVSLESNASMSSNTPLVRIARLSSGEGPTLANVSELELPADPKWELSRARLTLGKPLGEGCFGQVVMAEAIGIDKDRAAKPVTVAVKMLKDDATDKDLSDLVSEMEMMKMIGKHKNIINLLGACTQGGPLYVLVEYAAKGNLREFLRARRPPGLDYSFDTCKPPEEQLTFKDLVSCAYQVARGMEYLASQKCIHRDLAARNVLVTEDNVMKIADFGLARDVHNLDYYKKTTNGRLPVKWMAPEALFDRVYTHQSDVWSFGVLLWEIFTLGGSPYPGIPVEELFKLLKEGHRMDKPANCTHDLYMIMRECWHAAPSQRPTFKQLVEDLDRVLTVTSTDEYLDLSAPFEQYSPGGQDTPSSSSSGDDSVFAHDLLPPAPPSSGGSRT
Sequence of EPHB1 (P54762 whole entry, looked up): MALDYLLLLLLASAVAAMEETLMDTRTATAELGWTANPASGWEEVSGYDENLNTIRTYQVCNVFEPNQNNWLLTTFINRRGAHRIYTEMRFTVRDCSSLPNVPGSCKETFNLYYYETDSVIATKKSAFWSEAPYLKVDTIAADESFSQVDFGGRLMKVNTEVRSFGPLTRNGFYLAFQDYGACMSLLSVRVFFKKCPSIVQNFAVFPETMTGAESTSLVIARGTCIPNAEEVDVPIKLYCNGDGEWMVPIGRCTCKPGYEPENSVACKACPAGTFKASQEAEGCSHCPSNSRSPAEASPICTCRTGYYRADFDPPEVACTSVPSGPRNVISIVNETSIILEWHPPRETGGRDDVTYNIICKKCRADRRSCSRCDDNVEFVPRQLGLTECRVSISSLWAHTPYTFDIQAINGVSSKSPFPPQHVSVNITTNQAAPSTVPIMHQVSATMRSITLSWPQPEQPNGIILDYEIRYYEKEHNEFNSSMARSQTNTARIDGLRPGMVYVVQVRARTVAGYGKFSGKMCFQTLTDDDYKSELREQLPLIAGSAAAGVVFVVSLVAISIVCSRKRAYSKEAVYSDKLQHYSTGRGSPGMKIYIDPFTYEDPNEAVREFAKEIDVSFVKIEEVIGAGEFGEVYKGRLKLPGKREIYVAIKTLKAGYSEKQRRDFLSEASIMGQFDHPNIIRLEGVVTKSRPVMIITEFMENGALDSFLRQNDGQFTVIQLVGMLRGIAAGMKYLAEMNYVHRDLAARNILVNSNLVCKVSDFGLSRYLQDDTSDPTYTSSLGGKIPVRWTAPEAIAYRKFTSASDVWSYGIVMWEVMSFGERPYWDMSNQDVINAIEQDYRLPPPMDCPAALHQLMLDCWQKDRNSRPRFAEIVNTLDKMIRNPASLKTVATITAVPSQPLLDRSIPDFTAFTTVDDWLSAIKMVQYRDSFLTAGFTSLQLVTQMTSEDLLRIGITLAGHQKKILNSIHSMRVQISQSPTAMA
Sequence of MERTK (Q12866 whole entry, looked up): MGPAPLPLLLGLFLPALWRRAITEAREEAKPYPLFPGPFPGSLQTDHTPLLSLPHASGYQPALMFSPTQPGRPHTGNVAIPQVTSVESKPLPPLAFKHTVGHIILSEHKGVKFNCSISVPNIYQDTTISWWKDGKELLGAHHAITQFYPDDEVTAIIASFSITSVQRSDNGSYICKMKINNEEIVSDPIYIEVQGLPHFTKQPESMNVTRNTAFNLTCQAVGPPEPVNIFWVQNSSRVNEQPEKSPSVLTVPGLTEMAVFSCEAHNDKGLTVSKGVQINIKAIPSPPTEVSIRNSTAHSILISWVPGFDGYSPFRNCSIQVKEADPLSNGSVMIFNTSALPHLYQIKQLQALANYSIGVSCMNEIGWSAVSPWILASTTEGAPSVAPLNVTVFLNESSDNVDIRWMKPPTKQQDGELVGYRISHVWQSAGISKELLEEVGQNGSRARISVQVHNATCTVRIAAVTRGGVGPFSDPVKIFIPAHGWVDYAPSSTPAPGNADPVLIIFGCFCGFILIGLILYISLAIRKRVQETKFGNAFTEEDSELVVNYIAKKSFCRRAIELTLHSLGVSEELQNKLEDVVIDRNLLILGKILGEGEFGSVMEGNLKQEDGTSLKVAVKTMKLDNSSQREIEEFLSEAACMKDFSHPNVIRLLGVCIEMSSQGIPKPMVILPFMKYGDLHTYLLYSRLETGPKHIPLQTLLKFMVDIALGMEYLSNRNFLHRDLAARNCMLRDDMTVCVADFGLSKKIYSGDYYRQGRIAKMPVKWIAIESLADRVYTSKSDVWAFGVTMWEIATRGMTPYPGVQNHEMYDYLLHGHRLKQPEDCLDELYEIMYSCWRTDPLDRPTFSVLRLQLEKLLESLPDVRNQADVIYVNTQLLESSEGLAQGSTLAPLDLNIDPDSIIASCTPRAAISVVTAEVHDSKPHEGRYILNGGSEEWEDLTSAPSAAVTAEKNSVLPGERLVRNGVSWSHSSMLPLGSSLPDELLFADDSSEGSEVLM
Sequence of FGFR1 (P11362 whole entry, looked up): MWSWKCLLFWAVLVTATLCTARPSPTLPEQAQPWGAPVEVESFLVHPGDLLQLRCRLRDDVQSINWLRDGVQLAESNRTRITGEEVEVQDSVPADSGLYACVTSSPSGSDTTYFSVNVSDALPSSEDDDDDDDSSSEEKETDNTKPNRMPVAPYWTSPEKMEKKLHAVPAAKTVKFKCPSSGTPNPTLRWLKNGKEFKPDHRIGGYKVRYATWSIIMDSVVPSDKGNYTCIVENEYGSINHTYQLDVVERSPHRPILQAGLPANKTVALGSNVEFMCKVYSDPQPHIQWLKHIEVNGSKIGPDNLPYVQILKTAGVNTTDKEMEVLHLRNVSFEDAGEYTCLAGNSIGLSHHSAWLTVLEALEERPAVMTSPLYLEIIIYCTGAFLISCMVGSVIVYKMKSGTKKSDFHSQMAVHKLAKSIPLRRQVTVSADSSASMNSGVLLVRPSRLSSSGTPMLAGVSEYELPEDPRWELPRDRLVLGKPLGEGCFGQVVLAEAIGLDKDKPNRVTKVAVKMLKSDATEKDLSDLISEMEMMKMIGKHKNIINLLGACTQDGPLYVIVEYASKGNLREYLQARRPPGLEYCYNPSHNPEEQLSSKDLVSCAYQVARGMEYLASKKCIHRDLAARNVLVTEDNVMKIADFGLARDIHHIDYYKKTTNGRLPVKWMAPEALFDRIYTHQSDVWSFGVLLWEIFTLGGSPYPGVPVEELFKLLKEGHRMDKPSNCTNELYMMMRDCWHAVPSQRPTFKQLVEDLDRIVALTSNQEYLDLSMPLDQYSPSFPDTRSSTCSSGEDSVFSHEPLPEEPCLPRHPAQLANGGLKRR
Sequence of Hck (P08631 whole entry, looked up): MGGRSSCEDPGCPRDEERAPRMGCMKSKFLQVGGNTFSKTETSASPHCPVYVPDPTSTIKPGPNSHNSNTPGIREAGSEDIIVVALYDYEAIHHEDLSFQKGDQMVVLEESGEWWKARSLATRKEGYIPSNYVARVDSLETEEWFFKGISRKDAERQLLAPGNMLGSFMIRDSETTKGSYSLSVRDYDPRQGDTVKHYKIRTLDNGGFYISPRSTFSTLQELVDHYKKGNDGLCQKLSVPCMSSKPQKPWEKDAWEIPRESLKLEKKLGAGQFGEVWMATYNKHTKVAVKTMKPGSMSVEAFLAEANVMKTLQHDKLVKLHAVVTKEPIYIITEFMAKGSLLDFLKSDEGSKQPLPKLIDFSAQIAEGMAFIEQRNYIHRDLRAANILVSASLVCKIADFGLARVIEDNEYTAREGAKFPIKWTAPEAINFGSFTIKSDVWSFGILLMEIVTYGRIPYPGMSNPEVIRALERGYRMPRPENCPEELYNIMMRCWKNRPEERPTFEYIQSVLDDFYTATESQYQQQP

Consider IVGRLYRLLTE [SETX_Y1978_L1976R], for which the phosphorylation enrichment is 0.954 in the data set with Jak2; 0.376 in the data set with Fyn; 0.331 with c-Src; 0.396 with MERTK; 1.12 with Fes; 0.481 in the data set with EPHB1. Moreover, the phosphorylation enrichment stood at 0.37 in the data set on Fer (mouse); 0.418 with FGFR1; 0.644 in the data set with FGFR3; 0.676 in the data set with c-Abl (mouse); 1.1 with AncSZ; 0.387 in the data set with Hck. In addition, the phosphorylation enrichment in the data set with EPHB2 was 0.494. The SH2 binding enrichment came out at 1.05 with Grb2 SH2, 0.734 in the data set with SHP2-C SH2 and 0.738 in the data set with c-Src SH2.
For the sequence QLHRKYCLSPR [HJURP_Y445_E444K], the phosphorylation enrichment is 0.527 with Jak2; 0.545 with Fyn; 0.636 in the data set on c-Src; 0.491 with MERTK; 0.852 with Fes; 0.523 with EPHB1. Also, the phosphorylation enrichment with Fer (mouse) was found to be 0.603; with FGFR1, 0.815; with FGFR3, 0.581; with c-Abl (mouse) it was 0.679; in the data set with AncSZ it was 0.677; in the data set with Hck it was 0.533. In addition, the phosphorylation enrichment with EPHB2 worked out at 0.728. For the same sequence, the SH2 binding enrichment with Grb2 SH2 worked out at 1.09; with SHP2-C SH2, 0.859; in the data set with c-Src SH2, 0.961.
Consider SSYDTYHLSRE [KIR3DL2_Y253_I252T], for which the phosphorylation enrichment with Jak2 amounted to 0.527; with Fyn, 6.54; with c-Src, 3.69; with MERTK, 0.583; with Fes, 0.713; in the data set with EPHB1, 0.451. The phosphorylation enrichment in the data set on Fer (mouse) is 0.457; in the data set with FGFR1 it was 0.6; with FGFR3, 0.569; in the data set with c-Abl (mouse) it was 0.657; in the data set with AncSZ, 0.709; with Hck, 4.59. In addition, in the data set with EPHB2, the phosphorylation enrichment was 0.841. Further, the SH2 binding enrichment was 0.685 with Grb2 SH2, 0.529 in the data set with SHP2-C SH2 and 0.632 with c-Src SH2.
